Assay results published in paper PMC11863153, “Mechanistic Insights Into Oxidative Response of Heat Shock Factor 1 Condensates” (JACS Au, 2025).
“And” between values parts separate entries of the source, which are not always exact repeats. Equal values may be shown once.

How the values were obtained:
[1] = molecular target: T1, Heat shock factor 1 (Hsf1) wild-type (human), Q00613; experiment: SEC-MALS; with 10 mM DTT (+ Reductant); 50 uM injected; 25 mM HEPES/KOH pH 7.2, 150 mM KCl; Bio SEC-5 1000 A column; oligomer size from the median molar mass; details: remark: other sources report otherwise
T1 chain: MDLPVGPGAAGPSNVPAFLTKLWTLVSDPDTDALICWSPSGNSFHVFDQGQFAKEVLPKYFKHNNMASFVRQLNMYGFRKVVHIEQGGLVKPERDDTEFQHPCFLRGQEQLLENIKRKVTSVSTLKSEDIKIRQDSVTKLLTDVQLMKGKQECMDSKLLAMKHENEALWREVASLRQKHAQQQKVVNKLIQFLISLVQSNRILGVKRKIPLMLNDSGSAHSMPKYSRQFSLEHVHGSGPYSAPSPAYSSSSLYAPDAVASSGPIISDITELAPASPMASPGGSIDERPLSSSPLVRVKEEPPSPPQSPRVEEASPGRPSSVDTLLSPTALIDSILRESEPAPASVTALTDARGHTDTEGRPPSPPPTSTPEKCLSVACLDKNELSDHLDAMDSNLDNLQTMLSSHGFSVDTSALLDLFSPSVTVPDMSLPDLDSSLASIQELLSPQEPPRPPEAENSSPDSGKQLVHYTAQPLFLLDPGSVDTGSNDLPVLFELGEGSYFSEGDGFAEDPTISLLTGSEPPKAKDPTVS

[2] = molecular target: T1, Heat shock factor 1 (Hsf1) wild-type …; experiment: SEC-MALS; without reductant (oxidative conditions); 50 uM injected; 25 mM HEPES/KOH pH 7.2, 150 mM KCl; Bio SEC-5 1000 A column; oligomer size from the median molar mass; details: remark: other sources report otherwise
[3] = molecular target: the molecule itself; experiment: SEC; analytical SEC at varying protein concentrations; change of elution volume with decreasing concentration
[4] = molecular target: the molecule itself; experiment: SEC-MALS; without reductant (oxidative conditions); 50 uM injected; 25 mM HEPES/KOH pH 7.2, 150 mM KCl; Bio SEC-5 1000 A column; oligomer size from the median molar mass

B1: Heat shock factor 1 (Hsf1) wild-type, Q00613 1-529 (natural protein)
chain: MDLPVGPGAAGPSNVPAFLTKLWTLVSDPDTDALICWSPSGNSFHVFDQGQFAKEVLPKYFKHNNMASFVRQLNMYGFRKVVHIEQGGLVKPERDDTEFQHPCFLRGQEQLLENIKRKVTSVSTLKSEDIKIRQDSVTKLLTDVQLMKGKQECMDSKLLAMKHENEALWREVASLRQKHAQQQKVVNKLIQFLISLVQSNRILGVKRKIPLMLNDSGSAHSMPKYSRQFSLEHVHGSGPYSAPSPAYSSSSLYAPDAVASSGPIISDITELAPASPMASPGGSIDERPLSSSPLVRVKEEPPSPPQSPRVEEASPGRPSSVDTLLSPTALIDSILRESEPAPASVTALTDARGHTDTEGRPPSPPPTSTPEKCLSVACLDKNELSDHLDAMDSNLDNLQTMLSSHGFSVDTSALLDLFSPSVTVPDMSLPDLDSSLASIQELLSPQEPPRPPEAENSSPDSGKQLVHYTAQPLFLLDPGSVDTGSNDLPVLFELGEGSYFSEGDGFAEDPTISLLTGSEPPKAKDPTVS
[1]
  stoichiometry N: 7 mer
[2]
  stoichiometry N: 9 mer and < 16 mer

B2: Hsf1 C153S mutant (natural protein, human, UniProt Q00613 1-529, looked up)
chain: MDLPVGPGAAGPSNVPAFLTKLWTLVSDPDTDALICWSPSGNSFHVFDQGQFAKEVLPKYFKHNNMASFVRQLNMYGFRKVVHIEQGGLVKPERDDTEFQHPCFLRGQEQLLENIKRKVTSVSTLKSEDIKIRQDSVTKLLTDVQLMKGKQESMDSKLLAMKHENEALWREVASLRQKHAQQQKVVNKLIQFLISLVQSNRILGVKRKIPLMLNDSGSAHSMPKYSRQFSLEHVHGSGPYSAPSPAYSSSSLYAPDAVASSGPIISDITELAPASPMASPGGSIDERPLSSSPLVRVKEEPPSPPQSPRVEEASPGRPSSVDTLLSPTALIDSILRESEPAPASVTALTDARGHTDTEGRPPSPPPTSTPEKCLSVACLDKNELSDHLDAMDSNLDNLQTMLSSHGFSVDTSALLDLFSPSVTVPDMSLPDLDSSLASIQELLSPQEPPRPPEAENSSPDSGKQLVHYTAQPLFLLDPGSVDTGSNDLPVLFELGEGSYFSEGDGFAEDPTISLLTGSEPPKAKDPTVS
notes: Heat shock factor 1 (Hsf1), human, C153S in the leucine-zipper domain LZ1-3; source: E. coli BL21(DE3), purified (Ni-NTA, HRV3C cleavage, HiTrap Q anion exchange, Superdex 200 gel filtration); not shown: GB1, N-terminal, cleaved; His6, N-terminal, cleaved
[3]
  binding result: binds

B3: Hsf1 CS5 mutant (C36S/C103S/C153S/C373S/C378S) (natural protein, human, UniProt Q00613 1-529, looked up)
chain: MDLPVGPGAAGPSNVPAFLTKLWTLVSDPDTDALISWSPSGNSFHVFDQGQFAKEVLPKYFKHNNMASFVRQLNMYGFRKVVHIEQGGLVKPERDDTEFQHPSFLRGQEQLLENIKRKVTSVSTLKSEDIKIRQDSVTKLLTDVQLMKGKQESMDSKLLAMKHENEALWREVASLRQKHAQQQKVVNKLIQFLISLVQSNRILGVKRKIPLMLNDSGSAHSMPKYSRQFSLEHVHGSGPYSAPSPAYSSSSLYAPDAVASSGPIISDITELAPASPMASPGGSIDERPLSSSPLVRVKEEPPSPPQSPRVEEASPGRPSSVDTLLSPTALIDSILRESEPAPASVTALTDARGHTDTEGRPPSPPPTSTPEKSLSVASLDKNELSDHLDAMDSNLDNLQTMLSSHGFSVDTSALLDLFSPSVTVPDMSLPDLDSSLASIQELLSPQEPPRPPEAENSSPDSGKQLVHYTAQPLFLLDPGSVDTGSNDLPVLFELGEGSYFSEGDGFAEDPTISLLTGSEPPKAKDPTVS
notes: Heat shock factor 1 (Hsf1), human, all five cysteines replaced with serine; also called Hsf1 CS mutant; source: E. coli BL21(DE3), purified (Ni-NTA, HRV3C cleavage, HiTrap Q anion exchange, Superdex 200 gel filtration); not shown: GB1, N-terminal, cleaved; His6, N-terminal, cleaved
[4]
  stoichiometry N: ~5 mer
